Data as given in patent publication US20250296996A1 (BROADWING BIO, published 2025).

T1: P63 (huANGTPL7-GGPGG_sub-his) (human, UniProt O43827 27-346)
T1 construct: also called full length human ANGPTL7 monomeric variant L59 GGPGG; not shown: C-terminal short linker and His tag
T1 sequence: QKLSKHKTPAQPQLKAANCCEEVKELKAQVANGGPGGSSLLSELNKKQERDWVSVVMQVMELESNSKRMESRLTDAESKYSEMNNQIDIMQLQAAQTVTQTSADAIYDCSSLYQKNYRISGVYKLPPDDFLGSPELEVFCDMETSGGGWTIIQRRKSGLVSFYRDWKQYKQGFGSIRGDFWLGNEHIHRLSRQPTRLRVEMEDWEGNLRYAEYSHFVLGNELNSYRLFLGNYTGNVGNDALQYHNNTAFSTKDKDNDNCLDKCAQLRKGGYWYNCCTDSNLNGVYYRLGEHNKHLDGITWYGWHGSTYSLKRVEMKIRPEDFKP

T2: P60 (huANGPTL7-Fibrinogen-his) (human, UniProt O43827 129-343)
T2 construct: also called human ANGPTL7 fibrinogen domain; not shown: C-terminal short linker and His tag
T2 sequence: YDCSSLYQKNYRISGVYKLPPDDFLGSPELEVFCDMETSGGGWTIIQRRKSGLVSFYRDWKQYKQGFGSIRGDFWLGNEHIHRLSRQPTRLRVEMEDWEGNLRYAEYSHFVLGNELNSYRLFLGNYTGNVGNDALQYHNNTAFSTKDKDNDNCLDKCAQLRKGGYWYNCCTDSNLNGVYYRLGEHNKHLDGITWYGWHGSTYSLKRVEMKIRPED

T3: Pext-01 (huANGTPL7-FLAG multimer) (human, UniProt O43827 27-346)
T3 construct: also called PExt-1; human wild type ANGPTL7 multimer; not shown: FLAG tag
T3 sequence: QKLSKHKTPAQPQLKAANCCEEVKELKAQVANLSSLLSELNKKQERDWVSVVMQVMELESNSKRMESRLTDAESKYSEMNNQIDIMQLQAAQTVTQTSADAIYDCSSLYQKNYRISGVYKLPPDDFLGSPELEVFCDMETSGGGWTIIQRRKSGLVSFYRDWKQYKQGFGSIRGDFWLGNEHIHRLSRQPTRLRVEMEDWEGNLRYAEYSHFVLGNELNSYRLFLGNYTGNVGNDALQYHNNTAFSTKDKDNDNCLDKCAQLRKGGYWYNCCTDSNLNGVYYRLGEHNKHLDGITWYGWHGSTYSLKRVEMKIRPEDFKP

T4: P66 (rabbit ANGPTL7-his) (rabbit, UniProt G1T4P1 27-344)
T4 construct: mature; also called rabbit ANGPTL7 protein
T4 sequence: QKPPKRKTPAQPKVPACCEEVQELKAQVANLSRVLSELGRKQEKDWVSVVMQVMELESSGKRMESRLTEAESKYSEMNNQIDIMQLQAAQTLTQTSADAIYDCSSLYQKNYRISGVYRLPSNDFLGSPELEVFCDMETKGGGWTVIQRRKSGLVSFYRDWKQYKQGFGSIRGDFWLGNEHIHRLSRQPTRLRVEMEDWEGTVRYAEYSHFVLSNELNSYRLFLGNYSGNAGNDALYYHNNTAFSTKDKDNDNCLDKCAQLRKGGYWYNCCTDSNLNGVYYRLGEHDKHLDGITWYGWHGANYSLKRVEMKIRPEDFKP

B1: ATX-P-449 (antibody, human IgG1, kappa, N297A, V domains shown)
VH: QVQLVESGGGVVQPGRSLRLSCAASGFAFSSYGMHWVRQAPGKGLEWVAVISYYGSNKYYADSVKGRFTISRDNSKNTLYLQMNSLRAEDTAVYHCARGITMDVWGKGTTVTVSS
VL: EIVLTQSPATLSLSPGERATLSCRASQSVSSYLAWYQQKPGQAPRLLIYDASNRATGIPARFSGSGSGTDFTLTISSLEPEDFAVYYCQQRSNWPLTFGGGTKVEIKR
notes: Full chains (VH + hIgG1-Agly-Fc)
B2: ATX-P-443 (antibody, human IgG1, kappa, N297A, V domains shown)
VH: QVQLVQSGAEVKKPGASVKVSCKASGYTFTSYGISWVRQAPGQGLEWMGWIIAYNGNTNYAQKLQGRITMTTNTSTNTAYMELRSLRSDDTAVYYCGRDTGFSFDYWGQGTLVTVSS
VL: not shown
notes: as for B1
B3: ATX-P-428 (antibody, human IgG1, kappa, N297A, V domains shown)
VH: QVQLVQSGAEVKKPGASVKVSCKASGYTFSSYGISWVRQAPGQGLEWMGWISAYNGNTNYAQNLRGRVAMTTDTSTTTAYMELRSLRSDDTAVYYCARVSLVWFGELPRGFDYWGQGTLVTVSS
VL: not shown
notes: as for B1

Assays:
[1] = target: T1, P63 (huANGTPL7-GGPGG_sub-his); assay: BLI Octet HTX; IgG on AHC sensor; P63 at 100 nM
Procedure: (§1) Experiments were also conducted to determine the reactivity and dissociation constants (KD) of anti-ANGPTL7 antibodies with the human ANGPTL7 GGPGG_sub-his protein. Binding experiments were performed on Octet HTX (ForteBo) in 1×PBS, pH 7.4, 0.1 mg/mi BSA, 0.05% Sodium Azide, and 0.02% Tween 20. Antibodies at a concentration of 50 nM were loaded on pre-hydrated AHC biosensors for 5 min. The loaded sensors were dipped into monovalent P63 (huANGTPL7-GGPGG_sub-his) at a concentration of 100 nM for 5 min of association, followed by 10 min of dissociation.

[2] = target: T2, P60 (huANGPTL7-Fibrinogen-his); assay: BLI Octet HTX; IgG on AHC sensor; P60 at 200 nM; 1:1 fit
How it was run: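 Anti-ANGPTL7 IgG at 50 nM loaded 5 min on AHC biosensors, then dipped in monovalent P60 at 200 nM: 5 min association, 10 min dissociation.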

[3] = target: T3, Pext-01 (huANGTPL7-FLAG multimer); assay: BLI Octet HTX; IgG on AHC sensor; Pext-01 at 100 nM; 1:1 fit; apparent KD
Procedure: as §1, with “multimer” for “GGPGG_sub-his”, “(ForteBio)” for “(ForteBo)”, “mg/ml” for “mg/mi”, “mi.” for “min.”, “Pext-01 (huANGTPL7-FLAG)” for “monovalent P63 (huANGTPL7-GGPGG_sub-his)”, “dissociation. […] Responses (nm) at the end of association were also determined (Table 7).” for “dissociation.”

[4] = target: T2, P60 (huANGPTL7-Fibrinogen-his); assay: BLI Octet HTX; IgG on AHC sensor; P60 at 200 nM
Procedure: ANGPTL7 Antibody Kinetics. Experiments were conducted to determine the reactivity and dissociation constants (KD) of anti-ANGPTL7 antibodies with the human fibrinogen domain of the ANGPTL7 protein. Binding experiments were performed on Octet HTX (ForteBio) in 1×PBS, pH 7.4, 0.1 mg/ml BSA, 0.05% Sodium Azide, and 0.02 Tween 20. Antibodies at a concentration of 50 nM were loaded on pre-hydrated AHC biosensors for 5 min. The loaded sensors were dipped into monovalent P60 (huANGPTL7-Fibrinogen-his) at a concentration of 200 nM for 5 min association, followed by 10 min dissociation. […] Responses (nm) at the end of association were also determined (Table 2).

P66 (rabbit ANGPTL7-his) = target: T4, P66 (rabbit ANGPTL7-his); assay: BLI Octet HTX; IgG on AHC sensor; P66 at 200 nM; 1:1 fit
How it was run: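 Biolayer interferometry in PBS pH 7.4 with 0.1 mg/ml BSA, 0.05% sodium azide, 0.02% Tween 20; antibodies at 50 nM loaded on AHC sensors for 5 min. Monovalent analyte at 200 nM: 5 min association, 10 min dissociation; end-of-association response (nm) recorded, kinetics by 1:1 fit.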

Row | Binder | binding result [1] | Response [2] | Response [3] | binding result [4] | Kd (P66 (rabbit ANGPTL7-his)) | Response (P66 (rabbit ANGPTL7-his))
1 | B1 | no binding (tested: 100 nM) | 0.08 nm | 0.65 nm | no binding (tested: 200 nM) | 0.626 nM | 0.74 nm
2 | B2 | no binding (tested: 100 nM) | 0.01 nm | 0.03 nm | no binding (tested: 200 nM) | – | 0.03 nm
3 | B3 | no binding (tested: 100 nM) | 0.02 nm | 0.05 nm | no binding (tested: 200 nM) | – | 0.04 nm
